According to the DeepSol protein solubility set:

Assay: soluble on expression in E. coli; label from the status in PepcDB or PDB records

Row | Sequence | soluble on expression in E. coli
1 | MSEVKKTKVHLISGFLGTGKTTALKSLMAQKDPNEKWVIIVNEFGEIGIDGAVLSDNGIPVAEIAGGCLCCTAGPQMGVTVQKMLRDAKPDRLMIEASGLAHAASVIDELKAKPLDSLLEIGAVFTVVDPRQFINPDYAQQALYKDQIGICDVLAASKTDLCTPEQLAEFHDKAAKLFPPKAKVVEVQNAQLDIQWLDIPVVEKSRYRLKALPDNTMGFQSQGFTFPAGRDFNGEKLTNFFNDLPKMTEGLVRAKGVFQVLGTWVWLNWVDGQWGANQVSWRRDSRFELIAKSFDADLIEQKLKDALELEHHHHHH | soluble
2 | MSEVLNRQSREITTIVSQPNISRPNYQREKGKERLLGIKATESSNKAGQSFVPQLNPSGTLFTISMKPPAKINTGYTPVDEQKEVKAEVRNSEITEKSFGQAKFIGVSAGNTVGYVIPNLEPGLSQYLQANRSLRAIGVISSRVGAAAQIMAADEAVKKTNSELIRLELARDELGGPGHGVFALFGAEDVADVIRAVEIALKATEEYYQNIKNTPAGKIETHYTARAAAALNKAFGAPLNQAFGIIIGAPAGVGLLMSDTALKTAHVTMVSFWGPSVVQAFANEVWFTVTGDSAAVKNALEAAREVGLQVLAEFRA | not soluble
3 | MSFEEKTFKWLMNQKFYHGYLPREDLPYVLKKKGDFIFRVTERTVGKEQKKDIVLSIAWPTESVAMIDTKDIKNYLIERSANSVWLDLKISFHSIDALYNHYRKNELVHPNLRIKLGRPICLFFWEFKHSQINLIKKVGKGAYGEVFKGTVTRGNKTFNGAIKAMRKDLDAGNEKMKEVMAEARLMRSLNHPNIVRCRGIAVLEQPVYIVIEFINGGGLDSYLKKNSQTLTMDQKNRMAISAAWGIEFMHSHDIIHRDIAARNCLYDNKNLVKLSDFGLSRKGSVYRMKKAMKMPTKWLAPESLTTFTFSGASDVYTFGVLLYEIYTCQEPYLAVKAGEAKRYILSGAFPNFTKQAPPELNEIVKKSIYQLDPAKRDTMKVIVKKLETWLDVELVLDENEKPDIDPESNRFNGNMPIRVDSSTKKMRNDTVCIPPPETATVALPNSLPPITVSARSKNSRKSTLKRKKKKTSKDSSMTTTTTNTNESEPPADGQVISSETMSVANKMVSDAKGGSPEMLTPSLEELKPSSQENETFLNEKNSTAKN | not soluble
4 | MSFRVSASSSVKPEKDIRIGLLGASGYTGAEIVRLLANHPHFQVTLMTADRKAGQSMESVFPHLRAQKLPTLVSVKDADFSTVDAVFCCLPHGTTQEIIKELPTALKIVDLSADFRLRNIAEYEEWYGQPHKAVELQKEVVYGLTEILREDIKKARLVANPGCYPTTIQLPLVPLLKANLIKHENIIIDAKSGVSGAGRGAKEANLYSEIAEGISSYGVTRHRHVPEIEQGLSDVAQSKVTVSFTPHLMPMIRGMQSTIYVEMAPGVRTEDLHQQLKTSYEDEEFVKVLDEGVVPRTHNVRGSNYCHMSVFPDRIPGRAIIISVIDNLVKGASGQALQNLNIMLGYPETTGLLHQPLFP | soluble
5 | MSFSGVKVSPECLEAFQELKLGKSLRYVVFKMNDTKTEIVVEKKSTDKDFDTFLGDLPEKDCRYAIYDFEFNLGEGVRNKIIFISWSPDVAPIKSKMVYSSSKDTLRRAFTGIGTDIQATDFSEVAYETVLEKVTRK | soluble
6 | MSFTTISVIGLGYIGLPTAAAFASRQKQVIGVDINQHAVDIINRGEIHIVEPALGNVVKMAVEGGFLRATTTPVEADAYLIAVPTPFKGDHDPDMAYVEAAAKSIAPVLKKGALVILESTSPVGATEQMAGWLAGMRTDLTFPQQAGEQADVNIAYCPERVLPGQVMVELIKNDRVIGGMTPVCSARASALYKIFLEGECVVTNSRTAEMCKLTENSFRDVNIAFANELSLICAEQGINVWELIRLANRHPRVNILQPGPGVGGHCIAVDPWFIVAQNPQQARLIRTAREVNDGKPHWVVDQVKAAVTDCLAATDKRASEVKIACFGLAFKPNIDDLRESPAMGIAQSIARWHSGETLVVEPNIRQLPKKLDGLCTLAKLDAALAAADVLVMLVDHDEFKAIPGDAVHQRYVVDTKGVWR | soluble
7 | MSFVVANTEFVSGAAGNLARLGSMISAANSAAAAQTTAVAAAGADEVSAAVAALFGAHGQTYQVLSAQAAAFHSQFVQALSGGAQAYAAAEATNFGPLQPLFDVINAPTLALLNRPLIGNGADGTAANPNGQAGGLLIGNGGNGFSPAAGPGGNGGAAGLLGHGGNGGVGALGANGGAGGTGGWLFGNGGAGGNSGGGGGAGGIGGSAVLFGAGGAGGISPNGMGAGGSGGNGGLFFGNGGAGASSFLGGGGAGGRAFLFGDGGAGGAALSAGSAGRGGDAGFFYGNGGAGGSGAGGASSAHGGAGGQAGLFGNGGEGGDGGALGGNGGNGGNAQLIGNGGDGGDGGGAGAPGLGGRGGLLLGLPGANGT | not soluble
8 | MSGAEQKVAYSLVSSGSLMSVNPGMARWIKELFCHNERVVLTGDWKHGFLSLTAVGATNVGSIRIHFN | not soluble
9 | MSGDIPLHQLQPNMNSFSVTVIVLDPGIHRRTQTGTIISMKVADASGSINASIMNPEFNETFKPGDILKFRGAYTSIYQGGLTLSVGKSGECKKVGEFMMVFSETPDISMMPLPAGVMDRRNERMQSPAGRYSRPSN | not soluble
10 | MSGEVGSNECLVSTNEVQEDSPAVTESSSANGSSPVRRGRGRPPKGTKVPKVKPAPKPYSGAPRGRPRKSDQVAKSPVAKSPVASSSADASPKRSRGAPKSYAEDVAATKPAKTDVATPALAALTGEKKGRGRPKKN | soluble
11 | MSGGEAQGKRKQWQRWLSPRYVWRRLRHNIGPKLVSLGAALVLWSVSTGDQRAQVQQSYDVPITVRDTTGASGSDERRAVSDLNPETVRVTLTGRPERLNELRPSNIEALLDVTGVPEGSFNRPVQIVAPSNTVLSKQVPERVQGFVDSELSRTLTVTLGVASPAENSLPRFEVRPSEVQATAPSRVLNQVTRVVTSPVDLDPGEEREAPLIALDSRGRVVEPVTLHPASVSVQRLDTGTLPVKTLPVVLGAPPASLRVQSQTLQPRTVRVVAAPELLGRLREVSGQVDYRVGSSTLPVTLRLPDGAQALETVSVSLVVERIKAPDPGAGAPTQQKSGASSSSGGNLEHHHHHH | soluble
12 | MSGGGIIPRGGGYSKRRGRGRRGGGNGGFRDDIRDNQSDRHLSPDRRSNHSEDRHEHRFNNYRQQNRPNSRTPSPSNHNQVQTYRNNPFDARPALSSNDRDQGRNRFSPPSFRRDGRDSDRNGYHEKEEEPTRGSRNDLRTILKPTDKEAARTWKLRIADAEEAIRRAEFQLRRAKMDHEALLEAYKEYTETTCPQELLKPNW | not soluble
13 | MSGNYDKNNINNFIDKNDEHDMSDILHKINNEEKKYEEIKSYSECLELLYKTHALKLGLDNPKKLNESFGHPCDKYKTIHIAGTNGKGSVCYKIYTCLKIKKFKVGLFSSPHIFSLRERIIVNDEPISEKELIHLVNEVLNKAKKLYINPSFFEIITLVAFLHFLNKKVDYAIIETGIGGRLDATNILTKPEVIVITSIGYDHLNILGDNLPIICNEKIGIFKKDANVVIGPSVAIYKNVFDKAKELNCTIHTVVPEPRGERYNEENSRIALRTLEILNISIDYFLKSIIPIKPPLRIQYLATEQIQHIKKKFSPDNLEHNVQYPLAVILDVGHNETAIDRLCTDINYFHKGQNIRICISITKPRNLSVFHPFIAQFGDTLKDIFYLPSLNERTYDFEEIVEMLNNEEEIKNEIKELILSSSKKVGKWLAHEKQGNINEEDALKLYKRGCIPLIIKNAFLECCKDNSILLVCGTFFVFDEVLNVFDIHSDMQDTIFMNEPS | not soluble
14 | MSGPVRTRRILEELGPTYIKLGQLLSMRRDLVPLEYAAEFSKLQDDAPSFGFEEVELIIREELGLPVEDLFESFEKKPLACASIGQVHRAKLKNGDDVVVKVQRPGIKEVIESDLDIMYSLSRLLTEHIPEARLYRPVELVDELSRSILAEIDYSQEGWNTDRFAENFKDSEQIHIPKVYWDYTGTRVLTLEYIEGIKGGRVDLLEKLEHHHHHH | not soluble
15 | MSGREFLQKLLDGERVEWKALGEIIQLEKGRQLNKDLLSSSGRYPAYNGGMSYSGFTDSYNYSENKTIISQGGASAGFVNFVTTKFYANAHCYVVLPDTEVVDNRYIYHFLKLNEERLTSCQHGAGIPALRASEITSLKIPIPCPDNPKKSLAIQAEIVRILDAFTELTAELTAELTARKKQYAYYRDRLLTFTTPPYGHPSKGGELFSLFGHPSEGGELFTPYGHSVEERELNSPSLKGWQAQPDGVVPVEWKTLGEVGHFIRGSGIQKSDFKASGVGCIHYGQIHTHYGTWTTETKSFIDPEFANRLKKAKPGDLVIATTSEDDDAVAKAVAWIGTEDVAVSTDAYIFRHTANPKYMSYFFQTDMFQEQKKPYITGTKVRRISGDNLAKILIPIPPLAEQERIVAILDQFDALTNSLTEGLPREIELRQKQYAYYRDLLFSFPKASFGGVPEGRDQFPSFGGVPEGRGGLNALEHHHHHH | not soluble
16 | MSGWNAYIDTMTAAAPSIKRCAIVGAADGSVWARTEADNVFKASEEELKTFVALFNDVTQVPAKGADIEGVHYVVPRTEESLIFGKKENTGFFAVKTKSAVLIAVYEGPNEVAAQVRKAVESMQTYLNNAGY | not soluble
17 | MSHAVTIEEPQAQPQVSQTRYRERSRAGSHISSNRAYDFLYDPLFIVSSEKDHTQANIQATLIRSRLRKVPRFKTMFSNLIHYPRYSLYWSKSDPVPPFISREWKGHKEKHREALRQLTTTDASFQMPKEVYEDPEVTGKNRYKYFERPFLPFFQQMPFNVVYAVSKAEPYTFPPTSTKHLSIPSKSTVGTQTDYRDADVQTDPYSPEYVVCQDSIPELLTLATLTWGRGLPAGQAEVEMIERAREKRAWEASLPALSDTSQFEKRRKMMNEMERKEWAFREQEIEKLQEIRLEVLKELLRKREENQNEVNMKHLNARWSKLQEGKEAKMAVIYLQKLLRGRVIQNMMFEGKEKRLELIQELRTCHALQEDEKLVKKAEKQVTLALQRQRNLHEHKVSLVENHLAGLEGRALADMFDFLSKELVRLQEERRIHAFVMLAERQRRVREAEESGRRQVEKQRLREEDEIFKEVVKVHHSTISSYLEDIILNTEANTAEEQARAEIEKMAEKINDIAYEMESRRTYLQSEEIVAELVYSFLIPEVQKYFVKEKVRNAQRKHILAAHQIIHSYTESMVQKKLTEGEQDEASNAAMLLEKETQNENNS | not soluble
18 | MSHVSTLRRALLGALLLAPAAALANTPIPIDVWRTPTCGCCEDWLQHLRSNGFEVRAHMVEDTAPVRSQAGMPARYGSCHTARVQGYTVEGHVPAADIRRLLRDKPRAVGLTAPGMPIGSPGMDGPAYGGRRDAYDVLLVQPDGSARVFQAYR | not soluble
19 | MSIEKLKAALPEYAKDIKLNLSSITRSSVLDQEQLWGTLLASAAATRNPQVLADIGAEATDHLSAAARHAALGAAAIMGMNNVFYRGRGFLEGRYDDLRPGLRMNIIANPGIPKANFELWSFAVSAINGCSQCLVAHEHTLRTVGVDREAIFEALKAAAIVSGVAQALATIEALSPS | soluble
20 | MSIFNKDALSSFFGLSGEEDDYYDNYEEYEERKAVNEPPRRAARPKPQRPVQQQESYSQPAYTQQSEPVVEKPSARYRSAEAHQERDTQQAAYTEKKVVSMRSSNQSATTNTRRAQESTANAKTHKITIIEPRVYSEAMSIAKHLFAEEAVLVNFTLVEEDQARRIVDFLTGTVYALDGDIQRVGNEIFLCTPANMEIDSATAQSLANKQFFDFLEHHHHHH | not soluble
21 | MSIILYTANDGTAQFALQEFGGQLWLTQADMAELYQTTKQNISKHIKTILAEQELEEKATVNFQLTVQNENGRKVNRKIAHYSLPMIIAVGYRVRSARGIQFRQWATERLDEYLTKGFAIDDERLKGTGGGDYWKELLNRIRDIRSSEKALYRQVLDLYATSQDYNPKSSESQTFFAAVQNKLHYAASRQTAAELIYSRADSSKDFMGLTTFQGAIPTLNEAKIAKNYLTEDELFRLNRLVSAFFDLAEIKAQEQSPMYMRDWIAELDKFSGLYGQGTLQGAGSISRKQAEQKAEREYRAYEARILSPVEQAYLESVKALEKTAVQQIKQKKDRTK | not soluble
